Data as given in article PMC6586375.

Target: His-tagged BspC labelled with the Monolith His-Tag Labeling Kit RED-tris-NTA 2nd Generation (Streptococcus agalactiae)
Test: MST; labelled His-tagged BspC constant at 10 nM, vimentin titrated 1:1 in 16 steps from 20 μM to 0 μM; standard capillaries, Monolith NT.115 Pico, 20% excitation power, 40% MST power; three independent experiments

vimentin purchased from Novus Biologicals (from UniProt P08670 1-466) (natural protein)
Kd: 3.39 µM
